According to patent US20140322218A1 (Amgen, published 2014):

Tests used:
Assay in all cases: FACS, transfected 293T
[1] = target: T1, muCDH19(44-139)::huCDH19(142-249)::muCDH19(248-770), Flag-tagged, on 293T cells (human/mouse chimera)
T1 construct: also called Hu EC2; C137913
T1 chain: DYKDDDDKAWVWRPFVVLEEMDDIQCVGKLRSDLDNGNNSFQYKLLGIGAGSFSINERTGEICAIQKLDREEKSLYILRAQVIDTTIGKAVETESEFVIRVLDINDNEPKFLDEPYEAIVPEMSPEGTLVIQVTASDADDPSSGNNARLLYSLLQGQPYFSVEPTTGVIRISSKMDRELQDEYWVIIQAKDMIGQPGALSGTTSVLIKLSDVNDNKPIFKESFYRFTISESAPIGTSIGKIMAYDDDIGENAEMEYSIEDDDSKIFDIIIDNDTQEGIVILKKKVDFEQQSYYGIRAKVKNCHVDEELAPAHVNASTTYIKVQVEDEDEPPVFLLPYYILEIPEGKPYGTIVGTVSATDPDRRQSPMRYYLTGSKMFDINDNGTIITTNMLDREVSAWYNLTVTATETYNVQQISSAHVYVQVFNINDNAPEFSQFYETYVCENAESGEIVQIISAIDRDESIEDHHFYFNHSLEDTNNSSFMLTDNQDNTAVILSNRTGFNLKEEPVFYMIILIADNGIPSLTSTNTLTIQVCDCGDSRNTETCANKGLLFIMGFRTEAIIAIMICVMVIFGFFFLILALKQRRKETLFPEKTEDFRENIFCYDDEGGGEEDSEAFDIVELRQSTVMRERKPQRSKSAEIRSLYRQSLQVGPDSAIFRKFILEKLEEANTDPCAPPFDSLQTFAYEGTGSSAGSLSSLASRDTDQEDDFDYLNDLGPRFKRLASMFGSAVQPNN
Excerpt: (§1) The experiment included assaying the anti-CDH19 antibodies against mouse Cadherin19 to determine suitability for binning on these human/mouse chimeras.

[2] = target: T2, muCDH19(44-362)::huCDH19(365-772), Flag-tagged, on 293T cells (human/mouse chimera)
T2 construct: also called Hu EC4-5; C137917
T2 chain: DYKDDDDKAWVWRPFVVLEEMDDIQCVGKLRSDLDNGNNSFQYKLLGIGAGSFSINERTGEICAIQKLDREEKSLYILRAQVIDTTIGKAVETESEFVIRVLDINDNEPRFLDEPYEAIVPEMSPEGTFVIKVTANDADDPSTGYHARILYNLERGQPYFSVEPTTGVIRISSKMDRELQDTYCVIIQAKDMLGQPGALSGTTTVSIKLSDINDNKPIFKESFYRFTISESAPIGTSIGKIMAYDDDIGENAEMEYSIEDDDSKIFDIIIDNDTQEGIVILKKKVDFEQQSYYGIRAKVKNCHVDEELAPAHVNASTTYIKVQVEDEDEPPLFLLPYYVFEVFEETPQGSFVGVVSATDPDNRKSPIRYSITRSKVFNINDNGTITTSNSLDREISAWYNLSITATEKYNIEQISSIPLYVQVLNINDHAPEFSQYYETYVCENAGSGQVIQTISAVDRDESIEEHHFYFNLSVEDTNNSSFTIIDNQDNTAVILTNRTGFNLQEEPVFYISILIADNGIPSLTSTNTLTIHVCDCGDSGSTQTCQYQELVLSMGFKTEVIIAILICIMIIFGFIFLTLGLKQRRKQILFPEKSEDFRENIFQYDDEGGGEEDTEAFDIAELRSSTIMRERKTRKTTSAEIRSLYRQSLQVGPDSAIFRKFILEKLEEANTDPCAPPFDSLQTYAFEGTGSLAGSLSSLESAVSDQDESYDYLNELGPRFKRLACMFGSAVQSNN
Excerpt: as §1

[3] = target: T3, muCDH19(44-461)::huCDH19(464-772), Flag-tagged, on 293T cells (human/mouse chimera)
T3 construct: also called Hu EC5; C137915
T3 chain: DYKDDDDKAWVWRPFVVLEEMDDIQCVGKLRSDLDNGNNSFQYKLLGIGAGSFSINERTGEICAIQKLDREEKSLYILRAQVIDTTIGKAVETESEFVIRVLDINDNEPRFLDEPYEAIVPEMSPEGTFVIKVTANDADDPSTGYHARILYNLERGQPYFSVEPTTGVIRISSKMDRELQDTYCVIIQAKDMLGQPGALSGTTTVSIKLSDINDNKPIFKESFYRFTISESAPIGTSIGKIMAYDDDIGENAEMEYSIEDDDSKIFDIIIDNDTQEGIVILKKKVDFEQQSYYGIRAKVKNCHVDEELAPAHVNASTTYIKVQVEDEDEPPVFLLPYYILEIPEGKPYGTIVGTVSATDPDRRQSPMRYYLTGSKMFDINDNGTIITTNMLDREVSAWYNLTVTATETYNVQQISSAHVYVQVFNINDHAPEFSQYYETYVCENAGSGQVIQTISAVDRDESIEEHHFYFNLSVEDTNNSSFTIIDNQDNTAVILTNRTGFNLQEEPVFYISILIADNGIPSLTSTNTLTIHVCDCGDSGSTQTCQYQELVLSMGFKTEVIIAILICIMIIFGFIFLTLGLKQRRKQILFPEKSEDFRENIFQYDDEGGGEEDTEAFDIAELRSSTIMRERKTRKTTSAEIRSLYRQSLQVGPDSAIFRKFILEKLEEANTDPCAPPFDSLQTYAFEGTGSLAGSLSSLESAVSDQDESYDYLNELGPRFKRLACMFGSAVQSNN
Excerpt: as §1

binding result [1]: binds
binding result [2]: binds
binding result [3]: binds
B1: anti-CDH19 antibody 2G6 (Ab ID 13588) (antibody, human IgG1, lambda, V domains shown)
VH: QVQLVESGGGVVQPGRSLRLSCAASGFTFSSYGMHWVRQAPGKGLEWVAFIWYDGSNKYYADSVKDRFTISRDNSKNTLYLQMKSLRAEDTAVYYCARRAGIIGTIGYYYGMDVWGQGTTVTVSS
VL: SYELTQPPSVSVSPGQTASITCSGDRLGEKYTCWYQQRPGQSPLLVIYQDTKRPSGIPERFSGSNSGNTATLTISGTQAMDEADYYCQAWDSSTVVFGGGTKLTVLG
